Experimental data published in patent US20210269532A1.

Columns and labels:
[1] = target: cynomolgus AXL extracellular domain transiently expressed on CHO-S cells (cynomolgus); experiment: flow cytometry, serial dilution on CHO-S cells transiently expressing cynomolgus AXL ECD, AF647 anti-human IgG secondary, GeoMean (RL1-H)
[2] = target: human AXL extracellular domain transiently expressed on CHO-S cells (human) (UniProt P30530); experiment: flow cytometry, serial dilution on CHO-S cells transiently expressing human AXL ECD, AF647 anti-human IgG secondary, GeoMean (RL1-H)
human AXL extracellular domain transiently expressed on CHO-S cells (human), sequence (P30530 26-451 limits assumed): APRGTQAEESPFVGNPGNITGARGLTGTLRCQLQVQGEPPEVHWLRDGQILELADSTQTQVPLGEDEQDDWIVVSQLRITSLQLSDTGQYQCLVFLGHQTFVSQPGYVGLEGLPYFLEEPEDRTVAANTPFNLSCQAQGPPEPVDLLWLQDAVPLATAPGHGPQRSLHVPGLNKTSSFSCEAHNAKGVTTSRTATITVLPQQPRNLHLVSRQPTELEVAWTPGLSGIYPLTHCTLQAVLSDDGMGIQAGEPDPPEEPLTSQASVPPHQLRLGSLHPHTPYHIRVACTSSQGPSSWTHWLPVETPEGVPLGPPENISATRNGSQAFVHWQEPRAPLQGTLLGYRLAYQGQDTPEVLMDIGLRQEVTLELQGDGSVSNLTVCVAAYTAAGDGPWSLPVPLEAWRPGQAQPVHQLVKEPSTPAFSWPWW

[3] = target: His-tagged human AXL extracellular domain (recombinant) (human) (UniProt P30530); experiment: SPR classical sandwich assay (IBIS MX96): 100 nM analyte over AXL-His ECD held by surface-captured 10G5 analogue; white cell = sandwiching
His-tagged human AXL extracellular domain (recombinant) (human), sequence (P30530 26-451): as the sequence (P30530 26-451 limits assumed) above

[4] = target: His-tagged human AXL extracellular domain (recombinant) (human) (UniProt P30530); experiment: SPR classical sandwich assay (IBIS MX96): 100 nM analyte over AXL-His ECD held by the surface-captured Control antibody (f2); white cell = sandwiching
[5] = target: His-tagged human AXL extracellular domain (recombinant) (human) (UniProt P30530); experiment: SPR classical sandwich assay (IBIS MX96): 100 nM analyte over AXL-His ECD held by surface-captured YW327.6S2 IgG1-LALA analogue; grey cell = blocked (self)
[6] = target: His-tagged human AXL extracellular domain (recombinant) (human) (UniProt P30530); experiment: SPR classical sandwich assay (IBIS MX96): 100 nM analyte over AXL-His ECD held by surface-captured 22883; white cell = sandwiching
[7] = target: His-tagged human AXL extracellular domain (recombinant) (human) (UniProt P30530); experiment: SPR classical sandwich assay (IBIS MX96): 100 nM analyte over AXL-His ECD held by surface-captured 22995; white cell = sandwiching
[8] = target: His-tagged human AXL extracellular domain (recombinant) (human) (UniProt P30530); experiment: SPR classical sandwich assay (IBIS MX96): 100 nM analyte over AXL-His ECD held by surface-captured 23203-1; white cell = sandwiching

YW327.6S2 IgG1-LALA analogue (Genentech) (antibody), sequence (VH): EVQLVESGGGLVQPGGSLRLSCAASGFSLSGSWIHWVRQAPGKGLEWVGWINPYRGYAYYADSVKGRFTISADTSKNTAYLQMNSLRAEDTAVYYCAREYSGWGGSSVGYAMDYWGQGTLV
YW327.6S2 IgG1-LALA analogue (Genentech) (antibody), sequence (VL): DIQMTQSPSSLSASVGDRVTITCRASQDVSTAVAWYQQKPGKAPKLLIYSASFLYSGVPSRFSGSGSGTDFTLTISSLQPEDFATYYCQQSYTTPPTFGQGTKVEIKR

EC50 (read off the curve) [1] | EC50 (read off the curve) [2] | normalized SPR sandwich response [3] | normalized SPR sandwich response [4] | normalized SPR sandwich response [5] | normalized SPR sandwich response [6] | normalized SPR sandwich response [7] | normalized SPR sandwich response [8] | Substance
0.008 µg/mL | 0.006 µg/mL |  |  |  |  |  |  | 10G5 IgG1-LALA analogue (BerGenBio) (antibody)
0.05 µg/mL | 0.06 µg/mL |  |  |  |  |  |  | Ax225 IgG1-LALA analogue (Chugai) (antibody)
 |  | 1.2 | 1.3 | 0 | 3.9 | 1.1 | 1.1 | YW327.6S2 IgG1-LALA analogue (Genentech) (antibody)
